Article PMC11096365, “Cryo-EM structures of the human Elongator complex at work” (Nature Communications, 2024)
Each block holds one molecule with its values, some of them ahead of it.

How the values were obtained:
H3 = test: MST; settings: complex; chains chain;chain;chain
TK40 = test: MST; settings: complex; chains chain;chain;chain
[1] = target: T1, human ELP3 with C-terminal Twin-Strep-Tag (human, UniProt Q9H9T3 1-547); test: co-purification with SDS-PAGE; ELP1, ELP2 and ELP3-Twin-Strep co-expressed in insect cells; StrepTrap, heparin and Superose 6 columns; SDS-PAGE of the purified subcomplex; settings: partners not purified
T1 construct: ELP3, human, codon-optimized open reading frame, UniProt Q9H9T3; with the tag 65 kDa as printed; Same material as the ELP3 chain of m4; carries an iron-sulfur cluster in all structures; also called ELP3 with Twin-Strep-Tag (TST); source: SuperSf9-3 insect cells, co-expressed with ELP1 and ELP2 (pBig1a), purified as ELP123 (StrepTrap, heparin, Superose 6); not shown: Twin-Strep-Tag, C-terminal, …
T1 sequence (looked up): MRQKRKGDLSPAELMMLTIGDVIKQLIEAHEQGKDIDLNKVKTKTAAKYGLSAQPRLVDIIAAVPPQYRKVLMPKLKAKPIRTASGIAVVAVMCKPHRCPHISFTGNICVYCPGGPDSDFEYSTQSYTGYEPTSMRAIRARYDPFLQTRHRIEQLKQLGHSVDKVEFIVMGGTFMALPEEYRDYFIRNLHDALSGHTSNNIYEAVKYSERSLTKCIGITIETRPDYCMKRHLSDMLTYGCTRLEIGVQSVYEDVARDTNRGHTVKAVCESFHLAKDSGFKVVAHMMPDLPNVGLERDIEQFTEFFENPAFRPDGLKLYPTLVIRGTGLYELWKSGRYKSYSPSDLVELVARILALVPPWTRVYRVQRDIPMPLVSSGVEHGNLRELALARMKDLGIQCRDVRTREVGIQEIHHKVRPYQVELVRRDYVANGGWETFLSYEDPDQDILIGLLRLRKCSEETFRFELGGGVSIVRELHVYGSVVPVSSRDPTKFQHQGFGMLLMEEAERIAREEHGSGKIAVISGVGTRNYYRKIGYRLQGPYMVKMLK

[2] = target: the molecule itself; test: cryo-EM structure; co-expressed, co-purified ELP123 (0.6 g/l) without or with tRNA (3.3 µM), acetyl-CoA/DCA/ECA (0.5 mM) and SAM (1 mM); 20 mM HEPES pH 7.5, 100 mM NaCl, 2 mM MgCl2, 2 mM DTT; single-particle analysis
ELP1;ELP2;ELP3 wild type = ELP1;ELP2;ELP3 wild type (Homo sapiens;Homo sapiens;Homo sapiens, UniProt O95163;Q6IA86;Q9H9T3 1-1332;1-826;1-547, ||); test: MST; MST: 20 mM HEPES pH 7.5, 100 mM NaCl, 5 mM DTT, 0.05% Tween 20; incubated at 4 C 30 min, measured at 25 C; Cy5-tRNA 14 or 30 nM. Cryo-EM: 20 mM HEPES pH 7.5, 100 mM NaCl, 2 mM MgCl2, 2 mM DTT; settings: protein: recombinant;recombinant;recombinant, tags: ;;C-terminal Twin-Strep-Tag, chain copies: 2;2;2, label: internal Cy5 (5% Cy5-CTP), tRNA fold

Kd (H3): > 10000 nM
Kd (TK40): > 10000 nM
Molecule: human ELP123 subcomplex (ELP1, ELP2, ELP3), O95163 1-1332; Q6IA86 1-826; Q9H9T3 1-547

stoichiometry N [1]: 1
B1: human ELP1 (natural protein, UniProt O95163 1-1332, looked up)
chain: MRNLKLFRTLEFRDIQGPGNPQCFSLRTEQGTVLIGSEHGLIEVDPVSREVKNEVSLVAEGFLPEDGSGRIVGVQDLLDQESVCVATASGDVILCSLSTQQLECVGSVASGISVMSWSPDQELVLLATGQQTLIMMTKDFEPILEQQIHQDDFGESKFITVGWGRKETQFHGSEGRQAAFQMQMHESALPWDDHRPQVTWRGDGQFFAVSVVCPETGARKVRVWNREFALQSTSEPVAGLGPALAWKPSGSLIASTQDKPNQQDIVFFEKNGLLHGHFTLPFLKDEVKVNDLLWNADSSVLAVWLEDLQREESSIPKTCVQLWTVGNYHWYLKQSLSFSTCGKSKIVSLMWDPVTPYRLHVLCQGWHYLAYDWHWTTDRSVGDNSSDLSNVAVIDGNRVLVTVFRQTVVPPPMCTYQLLFPHPVNQVTFLAHPQKSNDLAVLDASNQISVYKCGDCPSADPTVKLGAVGGSGFKVCLRTPHLEKRYKIQFENNEDQDVNPLKLGLLTWIEEDVFLAVSHSEFSPRSVIHHLTAASSEMDEEHGQLNVSSSAAVDGVIISLCCNSKTKSVVLQLADGQIFKYLWESPSLAIKPWKNSGGFPVRFPYPCTQTELAMIGEEECVLGLTDRCRFFINDIEVASNITSFAVYDEFLLLTTHSHTCQCFCLRDASFKTLQAGLSSNHVSHGEVLRKVERGSRIVTVVPQDTKLVLQMPRGNLEVVHHRALVLAQIRKWLDKLMFKEAFECMRKLRINLNLIYDHNPKVFLGNVETFIKQIDSVNHINLFFTELKEEDVTKTMYPAPVTSSVYLSRDPDGNKIDLVCDAMRAVMESINPHKYCLSILTSHVKKTTPELEIVLQKVHELQGNAPSDPDAVSAEEALKYLLHLVDVNELYDHSLGTYDFDLVLMVAEKSQKDPKEYLPFLNTLKKMETNYQRFTIDKYLKRYEKAIGHLSKCGPEYFPECLNLIKDKNLYNEALKLYSPSSQQYQDISIAYGEHLMQEHMYEPAGLMFARCGAHEKALSAFLTCGNWKQALCVAAQLNFTKDQLVGLGRTLAGKLVEQRKHIDAAMVLEECAQDYEEAVLLLLEGAAWEEALRLVYKYNRLDIIETNVKPSILEAQKNYMAFLDSQTATFSRHKKRLLVVRELKEQAQQAGLDDEVPHGQESDLFSETSSVVSGSEMSGKYSHSNSRISARSSKNRRKAERKKHSLKEGSPLEDLALLEALSEVVQNTENLKDEVYHILKVLFLFEFDEQGRELQKAFEDTLQLMERSLPEIWTLTYQQNSATPVLGPNSTANSIMASYQQQKTSVPVLDAELFIPPKINRRTQWKLSLLD
notes: ELP1, human, codon-optimized open reading frame, UniProt O95163; predicted MW printed as 148 kDa; Same material as the ELP1 chain of m4; The ORF was first cloned into pFastBac1 HT A; source: SuperSf9-3 insect cells, co-expressed with ELP2 and ELP3 (pBig1a), purified as ELP123 (StrepTrap, heparin, Superose 6)
binding result [2]: binds

stoichiometry N [1]: 1
B2: human ELP2 (natural protein, UniProt Q6IA86 1-826, looked up)
chain: MVAPVLETSHVFCCPNRVRGVLNWSSGPRGLLAFGTSCSVVLYDPLKRVVVTNLNGHTARVNCIQWICKQDGSPSTELVSGGSDNQVIHWEIEDNQLLKAVHLQGHEGPVYAVHAVYQRRTSDPALCTLIVSAAADSAVRLWSKKGPEVMCLQTLNFGNGFALALCLSFLPNTDVPILACGNDDCRIHIFAQQNDQFQKVLSLCGHEDWIRGVEWAAFGRDLFLASCSQDCLIRIWKLYIKSTSLETQDDDNIRLKENTFTIENESVKIAFAVTLETVLAGHENWVNAVHWQPVFYKDGVLQQPVRLLSASMDKTMILWAPDEESGVWLEQVRVGEVGGNTLGFYDCQFNEDGSMIIAHAFHGALHLWKQNTVNPREWTPEIVISGHFDGVQDLVWDPEGEFIITVGTDQTTRLFAPWKRKDQSQVTWHEIARPQIHGYDLKCLAMINRFQFVSGADEKVLRVFSAPRNFVENFCAITGQSLNHVLCNQDSDLPEGATVPALGLSNKAVFQGDIASQPSDEEELLTSTGFEYQQVAFQPSILTEPPTEDHLLQNTLWPEVQKLYGHGYEIFCVTCNSSKTLLASACKAAKKEHAAIILWNTTSWKQVQNLVFHSLTVTQMAFSPNEKFLLAVSRDRTWSLWKKQDTISPEFEPVFSLFAFTNKITSVHSRIIWSCDWSPDSKYFFTGSRDKKVVVWGECDSTDDCIEHNIGPCSSVLDVGGAVTAVSVCPVLHPSQRYVVAVGLECGKICLYTWKKTDQVPEINDWTHCVETSQSQSHTLAIRKLCWKNCSGKTEQKEAEGAEWLHFASCGEDHTVKIHRVNKCAL
notes: ELP2, human, codon-optimized open reading frame; predicted MW printed as 93 kDa; Same material as the ELP2 chain of m4; The ORF was first cloned into pFastBac1 HT A; source: SuperSf9-3 insect cells, co-expressed with ELP1 and ELP3 (pBig1a), purified as ELP123 (StrepTrap, heparin, Superose 6)

B3: tRNAGln U33C34UG (structured_RNA)
RNA: GGCCCCAUGGUGUAAUGGUUAGCACUCUGGACUCUGAAUCCAGCGAUCCGAGUUCAAAUCUCGGUGGGACCUCCA
binding result (ELP1;ELP2;ELP3 wild type): binds

B4: tRNAGln C33U34UG (structured_RNA)
RNA: GGCCCCAUGGUGUAAUGGUUAGCACUCUGGACCUUGAAUCCAGCGAUCCGAGUUCAAAUCUCGGUGGGACCUCCA
binding result (ELP1;ELP2;ELP3 wild type): binds

B5: tRNAGlnCUG (structured_RNA)
RNA: GGUUCCAUGGUGUAAUGGUUAGCACUCUGGACUCUGAAUCCAGCGAUCCGAGUUCAAAUCUCGGUGGAACCUCCA
Kd (ELP1;ELP2;ELP3 wild type): 118 ± 13.8 nM

B6: tRNAGln C33C34UG (structured_RNA)
RNA: GGCCCCAUGGUGUAAUGGUUAGCACUCUGGACCCUGAAUCCAGCGAUCCGAGUUCAAAUCUCGGUGGGACCUCCA
binding result (ELP1;ELP2;ELP3 wild type): binds

B7: tRNASerUGA (structured_RNA)
RNA: GCAGCGAUGGCCGAGUGGUUAAGGCGUUGGACUUGAAAUCCAAUGGGGUCUCCCCGCGCAGGUUCGAACCCUGCUCGCUGCGCCA
Kd (ELP1;ELP2;ELP3 wild type; long variable loop): 138 ± 10.5 nM
